{"source": "patent US20210000879A1", "about": "“METHODS AND COMPOSITIONS FOR MRNA-BASED MODULATION AND DETECTION OF CELL PHENOTYPES” (Georgia Tech Research Corporation, priority 2018, published 2021)", "molecules": {"B1": {"name": "CatCH: mRNA encoding a modified ChR2 with a single amino acid substitution, CatCH (nucleic acid)", "DNA": "GGGAAATAAGAGAGAAAAGAAGAGTAAGAAGAAATATAAGAGCCACCATGGATTACGGCGGAGCCCTGTCTGCCGTGGGCAGAGAACTGCTGTTCGTGACCAACCCCGTGGTCGTGAACGGCAGCGTGCTGGTGCCTGAGGACCAGTGTTACTGCGCCGGCTGGATCGAGAGCAGAGGCACAAACGGCGCCCAGACCGCCTCTAACGTGCTGCAGTGGCTGGCCGCTGGCTTCAGCATCCTGCTGCTGATGTTCTACGCCTACCAGACCTGGAAGTCTACCTGCGGCTGGGAAGAGATCTACGTGTGCGCCATCGAGATGGTCAAAGTGATCCTGGAATTCTTCTTCGAATTCAAAAACCCCTCCATGCTGTACCTGGCCACCGGCCACAGAGTGCAGTGGCTGAGATACGCCGAGTGGCTGCTGACCTGCCCCGTGATCTGCATCCACCTGAGCAACCTGACCGGCCTGTCCAACGACTACAGCAGACGGACCATGGGCCTGCTGGTGTCCGACATCGGCACAATCGTGTGGGGCGCCACAAGCGCCATGGCCACAGGCTACGTGAAAGTGATCTTCTTCTGCCTGGGCCTGTGCTACGGCGCCAACACATTCTTCCACGCCGCCAAGGCCTACATCGAGGGCTACCACACAGTGCCCAAGGGCAGATGCAGACAGGTCGTGACAGGCATGGCCTGGCTGTTCTTCGTGTCCTGGGGCATGTTCCCCATCCTGTTCATCCTGGGCCCTGAGGGCTTCGGCGTGCTGTCTGTGTACGGCTCTACCGTGGGCCACACCATCATCGACCTGATGAGCAAGAACTGTTGGGGACTGCTGGGCCACTACCTGAGAGTGCTGATCCACGAGCACATCCTGATTCACGGCGACATCAGAAAGACCACCAAGCTGAACATCGGCGGCACCGAGATCGAGGTGGAAACCCTGGTGGAAGATGAGGCCGAGGCTGGCGCTGTGCCAGCCGCTGCTACAGGTAAGCCTATCCCTAACCCTCTCCTCGGTCTCGATTCTACGTGATAAGCTGCCTTCTGCGGGGCTTGCCTTCTGGCCATGCCCTTCTTCTCTCCCTTGCACCTGTACCTCTTGGTCTTTGAATAAAGCCTGAGTAGGAAGGC", "modifications": "mRNA transcribed from DNA"}, "B2": {"name": "JAWS mRNA: mRNA encoding the inhibitory opsin JAWS, activated by constant orange or red light (nucleic acid)", "chain": "GGGAAATAAGAGAGAAAAGAAGAGTAAGAAGAAATATAAGAGCCACCATGACCGCCGTGTCTACCACAGCCACAACAGTGCTGCAGGCCACACAGAGCGACGTGCTGCAAGAGATCCAGAGCAACTTCCTGCTGAACAGCAGCATCTGGGTCAACATTGCCCTGGCCGGCGTTGTGATCCTGCTGTTTGTGGCCATGGGCCGCGATCTGGAAAGCCCTAGAGCCAAGCTGATCTGGGTCGCCACAATGCTGGTGCCCCTGGTGTCTATCAGCAGCTATGCCGGACTGGCCTCTGGCCTGACAGTGGGCTTTCTGCAAATGCCTCCTGGACACGCCCTGGCTGGACAAGAAGTTCTGTCTCCCTGGGGCAGATACCTGACCTGGACCTTCAGCACCCCTATGATTCTGCTGGCCCTGGGACTGCTGGCCGATACAGATATCGCCAGCCTGTTCACCGCCATCACCATGGACATCGGGATGTGTGTGACAGGCCTGGCCGCTGCTCTGATCACAAGCAGCCATCTGCTGAGATGGGTGTTCTACGGAATCAGCTGCGCCTTCTTCGTGGCCGTGCTGTATGTGCTGCTGGTGCAGTGGCCTGCCGATGCTGAAGCTGCCGGAACCTCTGAGATCTTCGGCACCCTGAGAATCCTGACCGTGGTGCTGTGGCTGGGCTACCCTATTCTGTTTGCCCTGGGCTCTGAAGGCGTGGCACTGCTGTCTGTGGGAGTGACAAGCTGGGGCTATAGCGGCCTGGACATCCTGGCCAAATACGTGTTCGCCTTTCTGCTCCTCAGATGGGTCGCCGCCAATGAGGGAACAGTGTCTGGCTCTGGCATGGGCATTGGATCTGGCGGAGCTGCCCCTGCTGATGATCCAGCTGCTGCCACCTATCCTTACGACGTGCCCGACTACGCCTGATGAGCTGCCTTCTGCGGGGCTTGCCTTCTGGCCATGCCCTTCTTCTCTCCCTTGCACCTGTACCTCTTGGTCTTTGAATAAAGCCTGAGTAGGAAGGCTCGCTTTCTTGCTGTCCAATTTCTATTAAAGGTTCCTTTGTTCCCTAAGTCCAACTACTAAACTGGGGGATATTATGAAGGGCCTTGAGCATCTGGATTCTGCCTAATAAAAAACATTTATTTTCATTGCGC"}}, "key": {"[1]": {"test_system": "rat model of complete heart block", "test": "Effect of TGF-beta small molecule inhibitor on ventricular pacing with TBX18 mRNA", "assay_type": "in vivo", "conditions": "A83-01 released by osmotic pump", "procedure": "On Day 0, an osmotic pump releasing A83-01 (a TGF-beta inhibitor, Sigma Aldrich) was implanted into the rats. On Day 1, TBX18 mRNA was injected into the rats and a telemetry device was also implanted. Two doses of TBX18 mRNA were given to the rats: (i) a low dose of 100 μg TBX18 mRNA with 68.4 μl RNA-free phosphate-buffered saline (PBS), or (ii) a high dose of 300 μg TBX18 mRNA with 205 μl RNA-free PBS. A continuous telemetry recording of each rat's electrocardiogram (ECG) was made for 21 days after implantation of the telemetry device. In addition, 3-lead surface ECGs were performed on anesthetized animals on Days 7, 14, and 21 along with an isoproterenol challenge. The heart was harvested from each animal on Day 21.\nThe inventors then determined the effects of including a TGF-beta small molecule inhibitor on ventricular pacing with TBX18 mRNA (FIG. 16)."}, "[2]": {"test_system": "neonatal rat ventricular myocytes (NRVMs)", "test": "MEA light pacing of NRVMs transfected with ChR2 or CatCH mRNA", "assay_type": "cell-based", "text": "For proper characterization of cells transfected with opsins, in addition to protein expression, another metric, function, can assist in properly optimizing the use of mRNA as an expression vector. Functional characterization can be performed with the use of a multi-electrode array (MEA). An MEA device uses electrodes to measure the field potential of nearby cells. Changes in field potential in cardiomyocytes can be detected in an amplitude and location-specific manner depending on the pickup electrode. The MEA device used, a Maestro from Axion Biosystems, allows the simultaneous measurement and light excitation of 16 electrodes per well in a 48 well plate. By employing primary ventricular cardiomyocytes from neonatal rats (NRVMs), functional expression of an opsin such as ChR2 can be measured as a synchronization event between electrical activity and pulsed light excitation from the LEDs embedded in the Axion Lumos device.\nPacing cardiac myocytes allows the screening of new drugs in a controlled environment, where the effect on beat frequency and waveforms can be measured against predicted values in the presence/absence of drugs. The inventors transfected neonatal rat ventricular myocytes (NRVMs) with mRNA encoding ChR2 and a modified ChR2 with a single amino acid substitution, CatCH. NRVMs were plated on MEA plates and the next day were transfected with ChR2 or CatCH mRNA at varying concentrations in triplicate wells using Viromer Red (Lipocalyx). […] Furthermore, when interrogated with excitation rates of 1 hz, 2 hz, and 3 hz, CatCH transfected cells were able to be driven at higher beat rates (3 hz) up to 72 hours post-transfection (FIG. 8) compared to ChR2 transfected cells. As the amount of mRNA and structure of the opsin are very similar, this difference can be inferred as due to enhanced opsin sensitivity—fewer opsins per cell were necessary to drive cardiac action potentials. When opsin expression was low, such as at timepoints several days following transfection, cardiac cells could only be driven at the slower rate of 1 hz successfully."}, "[3]": {"test_system": "neonatal rat ventricular cardiomyocytes (NRVMs)", "test": "Capture of CatCh transfected NRVMs by 475 nm blue light stimulation", "assay_type": "cell-based", "procedure": "(§1) As a first step, the inventors expressed CatCh in neonatal rat ventricular cardiomyocytes (NRVMs) using IVT mRNA. Transfection conditions were varied using GFP mRNA. After identifying the optimal vehicle for transfection (Viromer Red), the expression of the protein of interest, CatCh-V5, was assessed after a 24 hour pulse of mRNA. […] CatCh-V5 localized to the membrane of transfected cells roughly 12 hours after transfection. […] The inventors next evaluated the function of transfected NRVMs. CatCh is an opsin, which induces a membrane depolarization in response to blue light stimulation. CatCh transfected NRVMs were exposed to a range of optical intensities (0 to 100% power) using 475 nm blue LED light. At each light intensity, the inventors scanned a range of stimulation durations (1 to 15 milliseconds). A train of monophasic square waves at a frequency of 2 Hz for a total of 30 seconds was utilized. The inventors compared the capture rate of CatCh versus Channelrhodopsin 2 (ChR2), a commonly used opsin. […] Cells were then subjected to blue light stimulation and analyzed for capture at different transfection amounts and timepoints."}, "[4]": {"test_system": "neonatal rat ventricular cardiomyocytes (NRVMs)", "test": "CatCh-V5 expression time course by imaging and flow cytometry", "assay_type": "cell-based", "conditions": "24 hour pulse of mRNA; Viromer Red", "procedure": "as §1"}, "[5]": {"test_system": "Human iPS cell-derived cardiomyocytes", "test": "MEA functional testing of mRNA-expressed opsins with light excitation", "assay_type": "cell-based", "procedure": "Human iPS cell-derived cardiomyocytes were seeded into 48 well Axion MEA plates and cultured for 2 weeks until completely synchronized electrical activity (beat rate) was observed. Cells were transfected with ChR2 mRNA, JAWs mRNA, delivery vehicle only, or a mixture of both mRNAs using a modified PEI derivative (Lypocalyx Gmbh). Transfected cells were assayed using the Axion Maestro MEA and Lumos light excitation device at 6 hours and 24 hours post transfection. Assays were comprised of electrical readout (16 electrodes per well) with either no stimulus, blue light stimulus (drives firing in ChR2-transfected cells), orange light stimulus (inhibits firing in JAWs-transfected cells), or blue light impulse stimulus with a period of constant orange light.\nAs a preliminary step, the inventors determined the optimal amount of delivery vehicle to transfect cells for adequate function of the expressed mRNA, defined as complete control of beat rate with ChR2 and conversely complete inhibition of firing with JAWs. […] Delivery vehicle alone had no effect on native cell beat rates, thus it is likely that higher amounts of protein can be generated if opsin function is required more rapidly. […] Using 0.1 ul of delivery vehicle, all three wells (100%) were paced via light (FIG. 3C).\nThe inventors next tested expression and function of ChR2 and JAWS (inhibitory opsin) in iPS-derived cardiomyocytes. Here, 500 ng each of ChR2 and JAWS mRNA were delivered to iPS-derived cardiomyocytes in an MEA plate (FIG. 9). The next day, cells were paced using pulsed blue light stimulation (arrows). At the same time, orange light was used for several seconds (bars) to prevent cardiomyocytes from beating."}}}
{"molecule": "Cc1cccc(-c2nn(C(=S)Nc3ccccc3)cc2-c2ccnc3ccccc23)n1", "note": "[A83-01, reference compound]", "values": [{"measurement": "effect on ventricular pacing / block", "setting": "[1]", "value": "reversed the block"}]}
{"molecule": "B1", "values": [{"measurement": "light sensitivity compared with ChR2 based on MEA measurements", "setting": "[2]; 125 ng of CatCH versus 1000 ng of ChR2", "value": "much higher sensitivity than ChR2"}, {"measurement": "maximum beat rate comparison with ChR2", "setting": "[2]; 1 hz, 2 hz, 3 hz LED pulsing, time course", "value": "able to sustain higher frequencies"}, {"measurement": "LED light intensity to which the opsin responds", "setting": "[2]; 24 hours post transfection", "value": 5, "unit": "%"}, {"measurement": "light required for electrical response relative to ChR2", "setting": "[2]; 24 hours post-transfection", "value": 15, "unit": "times"}, {"measurement": "time post-transfection up to which cells could be driven at 3 hz", "setting": "[2]; LED pulsing, maximum intensity excitation light", "value": "up to 72 hours"}, {"measurement": "beat rate at which cells were able to be driven", "setting": "[2]; excitation rates of 1 hz, 2 hz, and 3 hz, up to 72 hours post-transfection", "value": 3, "unit": "hz"}, {"measurement": "optimal RNA dose to achieve reliable pacing over time", "setting": "[3]; 0.1, 1 and 10 ng/1000 cells tested", "value": "1 ng/1,000 cells"}, {"measurement": "capture rate versus Channelrhodopsin 2 (ChR2)", "setting": "[3]; 475 nm blue LED, 0 to 100% power, 1 to 15 milliseconds, 2 Hz for 30 seconds", "value": "superior sensitivity"}, {"measurement": "days post-transfection with highest capture rates at lowest stimulation thresholds", "setting": "[3]; blue light stimulation", "value": "1 to 3", "unit": "days"}, {"measurement": "time after transfection to membrane localization", "setting": "[4]", "value": "roughly 12 hours"}, {"measurement": "time by which expression dropped off significantly", "setting": "[4]", "value": "≤ 5", "unit": "days"}, {"measurement": "time of peak expression", "setting": "[4]", "value": 24, "unit": "h"}]}
{"molecule": "B2", "values": [{"measurement": "opsin function in dual transfection", "setting": "[5]; 500 ng each of ChR2 and JAWS mRNA, next day, pulsed blue light and orange light", "value": "function of both opsins"}, {"measurement": "inhibition of beating under continuously applied orange light", "setting": "[5]; period of 10 seconds orange light", "value": "inhibited beating completely"}, {"measurement": "time post-transfection at which complete capture (synchronization or complete inhibition) was observed", "setting": "[5]; second highest and highest amounts of delivery vehicle", "value": 24, "unit": "h"}]}
